Measurements from patent publication US11236367B2, “Fatty acid decarboxylase and its uses” (COMMISSARIAT A L'ENERGIE ATOMIQUE ET AUX ENERGIES …, priority 2016, dated 2022).

Assays:
[1] = system: E. coli cells; assay: Hydrocarbon content of E. coli cells expressing algal GMC oxidoreductase; assay type: cell-based, Escherichia coli; conditions: no fatty acid substrate added; absent with empty vector
From the text: Chlamydomonas reinhardtii and Phaeodactylum tricornutum Alkane synthase was amplified from a synthetic gene codon-optimized for E. coli using for Chlamydomonas reinhardtii a primer forward 5′-[…]-3′ (SEQ ID No 29) and a primer reverse, 5′-[…]-3′ (SEQ ID No 30). For Phaeodactylum tricornutum, forward primer 5′-[…]-3′ (SEQ ID No 31), reverse primer 5′-[…]-3′ (SEQ ID No 32). Genes were cloned into pLIC07 vector, which introduced downstream of the ATG start codon a cassette coding for a 6 His-tagged thioredoxin and a tobacco etch virus (TEV) protease-cleavage site. E. coli strain expressing the GMC oxidase from Chlorella variabilis NC64A, Chlamydomonas reinhardtii or Phaeodactylum triconutum were grown at 37° C. with agitation at 180 rpm and light at 100 μmole.photon.m^−2·s^−1. When OD reached 0.6, 500 μM of isopropyl β-D-1-thiogalactopyranoside was added. Cells were then grown for 24 hours at 37° C., harvested, transmethylated using methanol added with 5% sulfuric acid and hydrocarbons were extracted with hexane and analyzed by GC-MS as previously described.

[2] = target: T1, Chlorella GMC oxidoreductase (Chlorella variabilis, UniProt A0A248QE08); assay: Enzymatic assay with purified recombinant enzyme (GC-MS of products); assay type: biochemical, Chlorella variabilis NC64A; conditions: for fatty acid substrate range of the enzyme: purified recombinant enzyme, white light
T1 construct: 6 His-tagged thioredoxin (N, cleaved yes); TEV protease-cleavage site (N, cleaved yes); made in house; host or cells: E. coli BL21-CodonPlus (DE3)-RIL
Description: (§1) All assays were performed in transparent glass vials sealed using caps with septum. Optimum pH was determined using a Teorell Stenhagen universal buffer (33 mM citric acid monohydrate, 33 mM phosphoric acid, 100 mM NaOH, 16.7 mM of boric acid, pH 8.5 adjusted with 1N HCl). Other assays were performed in 100 mM Tris HCl pH 8.5, 100 mM NaCl. Reaction mixtures (500 μL) typically contained 160 nM purified enzyme (stock ? solution 2.5 mg ml^−1) and 400 μM substrate (stock solution 10 mM in ethanol). In some assays, a lipase was used with the alkane synthase. In this case, substrate was a triacylglycerol. Generally, samples were shaken at 200 rpm during 15 min under LED-made white light at 2000 μmol ? photons m^−2s^−1. After the incubations, samples were heated at 95° C. during 15 min to stop the enzymatic reaction. Samples were cooled down and internal standard (hexadecane) was added (45 nmol from a 4.5 mM stock solution in chloroform). NaOH was then added to the reaction mixture (10 μL from a stock solution of 10 M) and samples were vortexed for 5 min. Then 250 μL of hexane was added and samples were vortexed for 5 min to extract alkanes and alkenes. The hexane phase was collected by centrifugation and analyzed by GC-MS-FID. The analysis was done by direct injection of 100 μl of the headspace into a GC-MS. In FIG. 11 activity on 1-^13C-palmitate was monitored by release of ^13CO2 using membrane inlet mass spectrometry. Illuminations were provided by CBT-120 LEDs (Luminous, Billerica) either blue (peak at 460 nm, 25 nm FWHM), or red (peak at 635 nm, 15 nm FWHM) at an intensity of 850 μmol photons m^−2 s^−1.

[3] = system: E. coli cells; assay: Co-expression in E. coli of a GMC oxidoreductase and a lipase; assay type: cell-based, Escherichia coli; conditions: compared to E. coli strains expressing the GMC oxidoreductases alone
Description: E. coli strain transformed with a vector expressing the GMC oxidase from Chlorella variabilis NC64A (or Chlamydomonas reinhardtii) and/or a vector expressing the lipase from the bacterium Staphylococcus hyicus, were grown in TB medium at 37° C. Expression was induced with 1 mM of isopropyl β-D-1-thiogalactopyranoside (added with 0.2% arabinose for co-expression). Cells were then grown overnight at 25° C. at 100 μmole.photon.m^−2·s^−1 and 6 h at 2000 μmole.photon.m^−2·s^−1. Cells were harvested (4 ml at OD=5), transmethylated using methanol added with 5% sulfuric acid and hydrocarbons were analyzed by SPME and GC-MS as previously described.

[4] = system: Chlamydomonas strain; assay: Hydrocarbons in Chlamydomonas strain with chloroplast genome transformed with the Chlorella enzyme cDNA; assay type: cell-based, Chlamydomonas reinhardtii; conditions: chloroplastic genome transformed with cDNA of the enzyme
Description: Chlamydomonas reinhardtii CC124 (nit1 nit2; mt−) and Chlamydomonas reinhardtii overexpressing the alkane synthase gene were cultured in minimal medium (Harris, 1989) in one liter photobioreactors (BIOSTAT Aplus, Sartorius Stedim Biotech) operated as turbidostats. A880 was measured continuously using a biomass probe (Excellprobe, Exner) and cultures were maintained at constant A880 by injection of fresh medium. The pH was maintained at a constant value of 7 by injection of KOH (0.2 N) or HCl (0.2 N). The cultures were stirred using a metal propeller (250 rpm). The gas flow rate was adjusted to 0.5 L min^−1. Air enriched with 2% (v/v) CO2 was generated using mass flow meters (EL flow, Bronkhorst). White light was supplied by eight fluorescent tubes (Osram Dulux L 18 W) placed radially around the photobioreactor. We used a blue filter (363 special medium blue, Lee filters, USA) and a red filter (113 magenta, Lee filters, USA) to provide respectively blue and red light. Both lights were at same intensity (35 μmol photons m^−2s^−1).
To quantify hydrocarbons together with fatty acids, transmethylation of whole cells was used. […]

[5] = target: T1, Chlorella GMC oxidoreductase; assay: 13CO2 release from 1-13C-palmitate with the purified enzyme (membrane inlet mass spectrometry); assay type: biochemical, Chlorella variabilis NC64A; conditions: CO2 production monitored, light on/off
Description: as §1, with “Then 250 μL of hexane was added and samples were vortexed for 5 min to extract alkanes and alkenes.” left out, “The analysis was done by direct injection of 100 μl of the headspace into a GC-MS.” left out, “Illuminations were provided by CBT-120 LEDs (Luminous, Billerica) either blue (peak at 460 nm, 25 nm FWHM), or red (peak at 635 nm, 15 nm FWHM) at an intensity of 850 μmol photons m^−2 s^−1.” left out
Online measurements of ^12CO2 (m/z=44) and ^13CO2 (m/z=45) were monitored using mass spectrometry (model Prima B, Thermo Scientific). […]

Molecule | hydrocarbons formed in E. coli cells expressing the enzyme [1] | dependence of pentadecane production on light intensity [2] | fatty acid substrate range of the enzyme [2] | fatty acid substrate range of the enzyme ([2]; listed as Chlorella alkane synthase) | increase in most hydrocarbons on co-expression with bacterial lipase (Uniprot P04635) [3] | change of hydrocarbon content in transformed Chlamydomonas strain [4] | dependence of enzyme activity on light [5]
Phaeodactylum enzyme: GMC oxidoreductase of the diatom Phaeodactylum tricornutum expressed in Escherichia coli (protein, listed as Phaeodactylum tricornutum) YDYIICGGGLAGCVLAERLSQDESKRVLVLEAGGSDYKSLFIRIPAGVLRLFRSKYDWQHETGGEKGCNGRNVFLQRGKILGGSSCTNVCLHHRGSAEDYNSWNIPGWTATDVLPFFKQSQKDETGRDATFHGADGEWVMDEVRYQNPLSKLFLEVGEAAGLGTNDDFNNWSHPQDGVGRFQVSEVNGERCSGATAFLSKAAKRSNVIVRTGTMVRRIDFDETKTAKGITYDLMGDDTCTTFQACLKEGGEVLVTGGAIASPQLLMCSGIGPGKHLRSLGIPVVHDNSAVGENLQDHPAAVVSFKTPQKGVSVTSKLRLFGKTNPIPVFQWLFFKSGLLTSTGCDHGAFVRTSDSLEQPDLQIRFLAARALGPDGMTTYTKFRTMKTVEDGYSFQSVACRAKSKGRIRLSSSNSHVKPMIDGGYLSNQDDLATLRAGIKLGRMLGNRPEWGEYLGQEVYPGPDVQTDEEIDEYIRNSLHTANALTGTCKMGTGRGAVVGPDLRVIGVNGVRVGDSSVFPCIPGGQTATPTVMIGDRAAVFVRQPVSQLNIEIFREKGGTHPGATTASA | albeit in lower amounts | – | – | – | – | – | –
Chlorella GMC oxidoreductase: GMC protein from Chlorella variabilis NC64A; 69 kDa FAD-dependent fatty acid decarboxylase (alkane synthase) (protein, listed as Chlorella variabilis) RASAVEDIRKVLSDSSSPVAGQKYDYILVGGGTAACVLANRLSADGSKRVLVLEAGPDNTSRDVKIPAAITRLFRSPLDWNLFSELQEQLAERQIYMARGRLLGGSSATNATLYHRGAAGDYDAWGVEGWSSEDVLSWFVQAETNADFGPGAYHGSGGPMRVENPRYTNKQLHTAFFKAAEEVGLTPNSDFNDWSHDHAGYGTFQVMQDKGTRADMYRQYLKPVLGRRNLQVLTGAAVTKVNIDQAAGKAQALGVEFSTDGPTGERLSAELAPGGEVIMCAGAVHTPFLLKHSGVGPSAELKEFGIPVVSNLAGVGQNLQDQPACLTAAPVKEKYDGIAISDHIYNEKGQIRKRAIASYLLGGRGGLTSTGCDRGAFVRTAGQALPDLQVRFVPGMALDPDGVSTYVRFAKFQSQGLKWPSGITMQLIACRPQSTGSVGLKSADPFAPPKLSPGYLTDKDGADLATLRKGIHWARDVARSSALSEYLDGELFPGSGVVSDDQIDEYIRRSIHSSNAITGTCKMGNAGDSSSVVDNQLRVHGVEGLRVVDASVVPKIPGGQTGAPVVMIAERAAALLTGKATIGASAAAPATVAA | presence of long chain alkanes from 13 to 17 carbons | increases linearly with light intensity | active on a variety of saturated free fatty acids ranging from C12 to C22 carbons | can use C12 to C22 fatty acids | two to three-fold increase | an increase was noted in the heptadecene content, and heptadecane also appeared | stops immediately when light is turned off
Chlamydomonas enzyme: GMC oxidoreductase of Chlamydomonas reinhardtii expressed in Escherichia coli (protein, listed as Chlamydomonas reinhardtii) LSVRAAAGPAGSEKFDYVLVGGGTASCVLANKLSADGNKKVLVLEAGPTGDAMEVAVPAGITRLFAHPVMDWGMSSLTQKQLVAREIYLARGRMLGGSSGSNATLYHRGSAADYDAWGLEGWSSKDVLDWFVKAECYADGPKPYHGTGGSMNTEQPRYENVLHDEFFKAAAATGLPANPDFNDWSHPQDGFGEFQVSQKKGQRADTYRTYLKPAMARGNLKVVIGARATKVNIEKGSSGARTTGVEYAMQQFGDRFTAELAPGGEVLMCSGAVHTPHLLMLSGVGPAATLKEHGIDVVSDLSGVGQNLQDHPAAVLAARAKPEFEKLSVTSEVYDDKCNIKLGAVAQYLFQRRGPLATTGCDHGAFVRTSSSLSQPDLQMRFVPGCALDPDGVKSYIVFGELKKQGRAWPGGITLQLLAIRAKSKGSIGLKAADPFINPAININYFSDPADLATLVNAVKMARKIAAQEPLKKYLQEETFPGERASSDKDLEEYIRRTVHSGNALVGTAAMGASPAAGAVVSSADLKVFGVEGLRVVDASVLPRIPGGQTGAATVMVAERAAALLRGQATIAPSRQPVAV | formation in E. coli cells of pentadecane and heptadecane as well as their monounsaturated analogs | – | – | – | two to three-fold increase | – | –
